Results on two molecules are retold here after paper PMC8446450, “Autosomal Recessive Cutis Laxa 1C Mutations Disrupt the Structure and Interactions of Latent TGFβ Binding Protein-4” (Frontiers in Genetics, 2021).

Assay [1] concerns the target Latent TGFβ binding protein-4 (LTBP4S) C-terminal region, ARCL1C mutant C1186R (human). Briefly: SPR; ProteOn, LTBP4 C-terminal constructs amine-coupled on GLC chip, fibrillin-1 PF3 injected 100-3.1 nM, 10 mM HEPES, 150 mM NaCl, pH 7.4, 0.005% Tween-20, 25°C; steady state (equilibrium) analysis.
Assay [2] deals with Tropoelastin (SHELdelta26A). Briefly: BLI; OctetRED96, biotinylated tropoelastin on streptavidin biosensors, LTBP4 C-terminal constructs 375-23.4 nM, 10 mM HEPES, 150 mM NaCl, pH 7.4, 0.005% Tween-20, 25°C; steady state analysis.
Assay [3] deals with T1, Tropoelastin (SHELdelta26A) (biotin where immobilised on streptavidin biosensors (position not given)).
T1 chain: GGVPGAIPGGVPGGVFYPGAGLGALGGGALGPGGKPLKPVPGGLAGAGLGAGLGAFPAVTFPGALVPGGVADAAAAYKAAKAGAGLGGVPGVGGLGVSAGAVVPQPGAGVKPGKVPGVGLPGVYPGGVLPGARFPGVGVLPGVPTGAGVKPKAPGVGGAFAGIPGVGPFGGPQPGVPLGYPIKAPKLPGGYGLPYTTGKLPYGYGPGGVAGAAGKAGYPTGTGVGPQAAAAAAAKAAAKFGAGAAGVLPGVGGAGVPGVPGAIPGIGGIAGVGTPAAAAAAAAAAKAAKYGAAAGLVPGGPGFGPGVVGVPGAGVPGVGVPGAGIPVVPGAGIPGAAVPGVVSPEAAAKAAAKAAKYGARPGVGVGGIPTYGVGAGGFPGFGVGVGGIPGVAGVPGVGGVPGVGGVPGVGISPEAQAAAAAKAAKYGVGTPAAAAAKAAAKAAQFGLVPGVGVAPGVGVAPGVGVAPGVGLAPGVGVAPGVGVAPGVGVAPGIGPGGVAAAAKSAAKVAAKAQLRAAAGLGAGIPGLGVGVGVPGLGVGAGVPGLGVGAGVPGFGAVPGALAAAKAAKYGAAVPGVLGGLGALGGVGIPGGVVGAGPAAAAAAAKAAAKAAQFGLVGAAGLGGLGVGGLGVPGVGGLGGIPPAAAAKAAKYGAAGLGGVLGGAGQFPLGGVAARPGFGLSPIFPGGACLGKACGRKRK
The assay can be described thus: BLI.

As for “Fibrillin-1 PF3 fragment (from UniProt P35555 45-722) (domain or fragment)”, in assay [1], the Kd was 40.2 nM.

B1: Latent TGFβ binding protein-4 (LTBP4S) C-terminal region, ARCL1C mutant C1186R (domain or fragment)
chain: RECYFDTAAPDACDNILARNVTWQECCCTVGEGWGSGCRIQQRPGTETAEYQSLCPHGRGYLAPSGDLSLRRDVDECQLFRDQVCKSGVCVNTAPGYSCYCSNGYYYHTQRLECIDNDECADEEPACEGGRCVNTVGSYHCTCEPPLVLDGSQRRCVSNESQSLDDNLGVCWQEVGADLVCSHPRLDRQATYTECCCLYGEAWGMDCALCPAQDSDDFEALCNVLRPPAYSPPRPGGFGLPYEYGPDLGPPYQGLPYGPELYPPPALPYDPYPPPPGPFARREAPYGAPRFDMPDFEDDGGPYGESEAPAPPGPGTRWPYRSRDTRRSFPEPEEPPEGGSYAGSLAEPYEELEAEECGILDGCTNGRCVRVPEGFTCRCFDGYRLDMTRMACVDINECDEAEAASPLCVNARCLNTDGSFRCICRPGFAPTHQPHHCAPARPRA
For the molecule B1, the Kd in assay [2] stood at 154 nM; in assay [3], 55.9 nM.
